The target of test [1] is T1, murine CD39 expressed on CHO cells (murine, UniProt P55772 1-510).
T1 construct: whole, on cells; also called CHO-moCD39; moCD39
T1 sequence (looked up): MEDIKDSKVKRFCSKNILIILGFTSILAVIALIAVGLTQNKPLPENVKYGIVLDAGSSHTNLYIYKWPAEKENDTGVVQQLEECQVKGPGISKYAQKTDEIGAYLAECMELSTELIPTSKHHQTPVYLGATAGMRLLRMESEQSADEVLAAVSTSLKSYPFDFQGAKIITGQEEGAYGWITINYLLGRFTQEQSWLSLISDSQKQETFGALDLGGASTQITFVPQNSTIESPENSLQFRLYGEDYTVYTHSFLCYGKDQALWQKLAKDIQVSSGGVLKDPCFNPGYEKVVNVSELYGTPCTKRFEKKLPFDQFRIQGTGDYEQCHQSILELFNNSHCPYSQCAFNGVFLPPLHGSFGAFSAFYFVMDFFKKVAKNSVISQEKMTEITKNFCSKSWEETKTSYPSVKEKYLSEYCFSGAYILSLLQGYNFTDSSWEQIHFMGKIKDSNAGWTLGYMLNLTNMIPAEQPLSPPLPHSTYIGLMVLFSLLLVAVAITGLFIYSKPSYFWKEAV
Briefly: flow cytometry titration on CHO-moCD39 cells. The method, then:
(§1) Cells were incubated with various concentration of unlabeled anti-CD39 antibody from 30 μg/ml to 5×10-⁴ μg/ml, for 30 minutes at 4° C. After washes, cells were incubated with Goat anti-mouse H+L labeled secondary antibody for 30 min at 4° C.
A general note: In flow cytometry, cells or beads pass a laser one at a time.

Test [2] deals with T2, human CD39 mutant 15 (human, UniProt P49961 1-510).
T2 construct: Expressed on Hek-293T cells; also called M15
T2 chain: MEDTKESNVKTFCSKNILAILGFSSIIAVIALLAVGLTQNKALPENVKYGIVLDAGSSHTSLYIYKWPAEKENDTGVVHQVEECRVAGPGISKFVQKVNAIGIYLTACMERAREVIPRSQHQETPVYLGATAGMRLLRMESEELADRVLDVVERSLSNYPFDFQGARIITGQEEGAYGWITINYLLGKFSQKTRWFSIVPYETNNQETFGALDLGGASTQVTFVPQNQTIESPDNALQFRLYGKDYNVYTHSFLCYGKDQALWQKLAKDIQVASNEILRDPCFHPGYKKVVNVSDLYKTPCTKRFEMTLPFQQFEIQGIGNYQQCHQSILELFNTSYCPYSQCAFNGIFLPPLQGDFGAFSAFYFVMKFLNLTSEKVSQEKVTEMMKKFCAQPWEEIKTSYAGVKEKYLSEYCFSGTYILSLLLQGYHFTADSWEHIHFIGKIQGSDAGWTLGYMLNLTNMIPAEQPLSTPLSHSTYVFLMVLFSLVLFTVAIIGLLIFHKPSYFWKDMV
Put plainly: flow cytometry on Hek-293T cells expressing CD39 mutant 15 (panel M15); unstained (US) median 8,98; antibody concentration not shown. The protocol: (§2) Mutants were transfected in Hek-293T cells, as shown in the table 1, using numbering of SEQ ID NO: 1. […] Mutant 19 includes substitutions at residues R138, M139 and E142.
(§3) In order to define the epitopes of the further anti-CD39 antibodies of Example 5, they were tested for loss of binding to the panel of CD39 mutants as described in Example 1 and Table 1. Mutants were transfected in Hek-293T cells, as shown in the table 1, using numbering of SEQ ID NO: 1.Dose-ranges of test antibodies (10-2.5-0.625-0.1563-0.0391-0.0098-0.0024-0.0006 μg/ml) are tested on the 20 generated mutants by flow cytometry.

Test [3] concerns the target T3, human CD39 mutant 19 (human, UniProt P49961 1-510).
T3 construct: Expressed on Hek-293T cells; also called M19
T3 chain: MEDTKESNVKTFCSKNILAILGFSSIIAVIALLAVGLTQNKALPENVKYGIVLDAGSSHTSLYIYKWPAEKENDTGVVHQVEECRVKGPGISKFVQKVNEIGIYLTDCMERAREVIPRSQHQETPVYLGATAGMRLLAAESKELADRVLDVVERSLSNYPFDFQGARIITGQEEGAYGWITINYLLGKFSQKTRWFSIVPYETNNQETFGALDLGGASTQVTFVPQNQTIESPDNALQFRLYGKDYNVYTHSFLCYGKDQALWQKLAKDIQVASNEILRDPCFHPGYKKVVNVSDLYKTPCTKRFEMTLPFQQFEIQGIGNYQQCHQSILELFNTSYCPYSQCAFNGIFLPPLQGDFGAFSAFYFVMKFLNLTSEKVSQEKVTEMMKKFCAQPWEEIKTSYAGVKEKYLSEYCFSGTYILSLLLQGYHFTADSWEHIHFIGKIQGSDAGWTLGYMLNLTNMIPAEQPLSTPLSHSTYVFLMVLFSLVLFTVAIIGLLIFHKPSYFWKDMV
Put plainly: flow cytometry on Hek-293T cells expressing CD39 mutant 19 (panel M19). The protocol:
as §2, §3

Test [4] has as its target T4, human CD39 (vascular CD39, NTPDase1) expressed at the surface of cells (human, UniProt P49961 1-510).
T4 construct: also called huCD39; CHO-huCD39
T4 sequence: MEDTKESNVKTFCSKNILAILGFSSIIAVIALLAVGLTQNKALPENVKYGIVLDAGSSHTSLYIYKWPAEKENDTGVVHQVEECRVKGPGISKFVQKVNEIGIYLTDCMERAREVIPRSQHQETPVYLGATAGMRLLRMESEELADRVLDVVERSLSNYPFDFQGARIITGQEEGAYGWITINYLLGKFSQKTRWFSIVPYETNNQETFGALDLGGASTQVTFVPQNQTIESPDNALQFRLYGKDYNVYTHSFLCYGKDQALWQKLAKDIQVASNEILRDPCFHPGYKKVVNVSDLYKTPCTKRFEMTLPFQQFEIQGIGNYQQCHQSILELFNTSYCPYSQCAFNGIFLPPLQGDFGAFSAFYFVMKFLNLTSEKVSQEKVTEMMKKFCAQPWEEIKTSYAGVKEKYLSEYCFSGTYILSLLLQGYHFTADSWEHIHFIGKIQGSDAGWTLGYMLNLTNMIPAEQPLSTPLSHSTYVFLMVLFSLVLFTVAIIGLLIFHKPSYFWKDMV
Briefly: flow cytometry on Hek-293T cells expressing wild-type CD39 (panel WT); unstained (US) median 10,3; antibody concentration not shown. The method, then: as §2, §3

The target of test [5] is T4, human CD39 (vascular CD39, NTPDase1) …. Put plainly: flow cytometry on Ramos lymphoma cells, second set of experiments. The protocol:
as §1

B1: antibody I-394 (antibody, V domains shown)
VH: EVQLQQSGPELVKPGASVKMSCKASGYTFTDYNMHWVKQSHGRTLEWIGYIVPLNGGSTFNQKFKGRATLTVNTSSRTAYMELRSLTSEDSAAYYCARGGTRFAYWGQGTLVTVSA
VL: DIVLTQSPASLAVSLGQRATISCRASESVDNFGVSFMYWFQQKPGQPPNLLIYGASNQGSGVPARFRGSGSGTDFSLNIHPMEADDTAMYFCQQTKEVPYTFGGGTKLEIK
notes: Mouse variable regions; Produced in CHO with human IgG1 constant domains carrying L234A/L235E/G237A/A330S/P331S (Kabat EU numbering) and a human Ck constant domain
The EC50 is the concentration giving half of the maximal effect. In the case of B1, the values for the binding result in test [1] and in test [3] were “no binding (tested: 30 µg/ml)” and “no binding”, respectively. Further, the “Median : Comp-Alexa Fluor 647-A” value was 6360 in test [2] and 3720 in test [4]. Moreover, in test [5], the 50% effective concentration (EC50) amounted to 0.19 µg/mL.

The values above are taken from US20190389961A1 (INNATE PHARMA, published 2019).
